Data from article PMC6698660.

Target: His-tagged Sinorhizobium meliloti DnaN (β-sliding clamp) (Sinorhizobium meliloti)
Assay: BLI

kon [M⁻¹ s⁻¹] | Substance
82000 | MBP-Flag-IEP fusion protein (MF-IEP) of the RmInt1 intron, made in E. coli (natural protein)
44000 | MF-IEP104 (MF-IEP carrying substitution L104A) (natural protein)
